Source: the supplement of paper PMC10567573

B1: PHTF1 (parent)
chain: SRHLNSQVKKTTTRWCHIVRDSDS

Variants of: B1
Assay: protein stability index of a GFP-peptide fusion (GPS, HEK-293T) (PSI 1-6); higher = more stable
Details: c terminus: a fixed tail appended
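Further: lentivirally expressed fusions sorted by FACS into six bins by GFP to DsRed ratio, PSI derived from sequencing read proportions per bin multiplied by bin number.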

Protein stability index of substitutions, site by site:
V8: F 2.57 | C 2.6 | T 2.1 | M 2.08 | I 2.35 | S 2.61 | R 1.78 | K 1.79 | H 2.22 | Y 1.57 | D 2.06 | Q 1.98 | L 2.07 | N 1.78 | E 2.79 | W 1.34 | G 2.57 | P 2.18 | A 2.26
K10: C 2.11 | L 1.8 | Y 1.69 | S 2.87 | M 2.37 | E 2.63 | R 1.8 | N 2.72 | W 1.97 | I 1.61 | A 2.76 | H 2.29 | P 2.28 | F 1.78 | Q 2.19 | V 2.71 | T 1.98 | G 2.55 | D 2.56
L4: G 1.8 | H 2.15 | A 2.58 | K 2.56 | Y 1.76 | I 2.75 | R 1.95 | V 2.03 | M 1.76 | W 2.25 | E 2.56 | S 2.29 | P 2.44 | T 2.06 | F 3.09 | D 1.99 | Q 2.12 | N 2.05
T13: F 1.81 | D 2.76 | S 2.05 | N 1.91 | C 2.73 | K 1.76 | P 1.8 | M 2.1 | I 1.41 | W 1.82 | V 3.04 | G 2.75 | Y 1.72 | H 2.02 | E 2.94 | R 2.14 | A 2.31
N5: H 2.56 | T 2.38 | R 3.93 | D 2.53 | Y 2.16 | E 1.59 | M 1.45 | W 2.27 | C 2.33 | I 2.73 | K 1.8 | Q 1.92 | L 1.92 | S 1.92 | A 2.19 | V 1.29 | F 2.02 | P 2.22 | G 2.79
R14: H 2.17 | E 3.35 | P 2 | Q 2.67 | W 1.65 | G 2.57 | A 3.02 | D 3 | F 2.04 | V 3.08 | M 1.6 | I 1.94 | C 1.87 | S 1.91 | L 2.14 | N 2.94 | Y 2.05 | T 1.71 | K 2.3
S6: A 2.29 | N 2.44 | G 1.98 | I 2.22 | Y 2.86 | Q 2.61 | C 1.7 | H 2.29 | W 2.5 | F 1.45 | T 1.83 | P 3.03 | D 2.88 | E 2.31 | M 1.93 | V 1.94 | K 2.38 | R 2.17 | L 1.68
Q7: M 1.73 | E 2.4 | A 2.6 | F 1.22 | D 2.65 | S 2.8 | L 1.84 | T 2.82 | Y 1.68 | N 1.78 | C 2.08 | W 2.84 | K 2.45 | R 2 | G 1.89 | I 2.17 | V 1.4 | H 3.08 | P 2.69
S1: I 1.23 | Q 2.38 | Y 2.25 | P 2.47 | F 1.76 | R 2.51 | T 2.09 | A 2.52 | D 3.06 | C 2.07 | E 1.8 | G 2.06 | W 2.1 | N 2.51 | K 2.26 | M 2.52 | L 1.51 | H 1.46 | V 1.84
W15: Y 3.36 | A 2.37 | D 4.57 | L 2.77 | T 3.87 | M 3.22 | V 3.06 | I 3.36 | E 4.88 | G 3.24 | C 2.74 | N 3.56 | H 3.53 | Q 4.35 | K 3.78 | F 3.71 | S 3.84 | R 3.94 | P 3.86
C16: I 1.84 | S 2.14 | P 2.57 | K 2.99 | L 2.79 | H 3.28 | N 3.65 | R 2.86 | F 2.07 | T 2.01 | D 3.34 | A 1.3 | E 2.34 | Q 2.3 | Y 2.56 | W 2.27 | G 3.53
H3: D 1.58 | G 2.21 | V 2.36 | P 1.64 | Q 2.28 | L 2.08 | I 1.25 | N 1.69 | A 2.23 | R 1.79 | T 2.23 | M 2.15 | W 1.53 | F 2.77 | E 2.52 | S 1.5 | K 2.02 | C 1.95
T12: L 1.53 | C 2.19 | R 2.09 | K 1.82 | I 1.93 | Y 1.5 | F 1.66 | N 1.76 | E 2.68 | H 1.31 | A 2.1 | V 1.94 | P 2.71 | D 2.91 | S 2.62 | Q 2.12 | M 1.76 | W 2.36 | G 1.64
H17: M 1.91 | L 1.7 | Q 1.71 | S 2.31 | G 2.65 | V 1.71 | R 2.58 | F 2.75 | A 1.42 | K 2.59 | Y 2.42 | C 1.66 | N 2.43 | T 1.91 | P 2.31 | I 1.65 | E 1.29 | W 2.62
T11: Q 2.43 | N 1.79 | M 2.39 | F 1.94 | K 2.16 | H 2.95 | W 2.02 | Y 2.41 | G 2.48 | P 2 | L 1.58 | D 2.97 | A 3.08 | R 2.12 | C 3.08 | E 2.11 | V 1.13 | S 1.83 | I 1.67
K9: H 1.81 | T 1.83 | M 2.37 | V 3.18 | P 2.71 | I 1.97 | R 2.16 | C 2.13 | L 2.21 | F 1.83 | E 2.33 | S 2.26 | D 2.23 | A 2.48 | Y 1.68 | G 2.55 | W 1.85 | N 2.35 | Q 2.02
I18: T 2.17 | A 2.43 | L 3.42 | V 1.73 | R 3.06 | D 3.92 | K 2.77 | M 2.34 | Q 3.09 | E 3.1 | G 3.15 | S 3.95 | W 2.15 | F 2.82 | C 2.13 | P 3.35 | N 3.3 | H 2.52
R2: G 1.69 | Q 2.4 | P 1.89 | I 2.2 | L 2.17 | S 2.23 | K 2.53 | C 2.12 | W 2.08 | V 1.87 | N 1.87 | H 1.96 | E 2.35 | A 2.38 | M 2.13 | Y 2 | F 2.56 | T 2.15 | D 2.3
